{
  "source": "paper PMC9663324",
  "about": "“Structural and mutational studies suggest key residues to determine whether stomatin SPFH domains form dimers or trimers” (Biochemistry and Biophysics Reports, 2022)",
  "molecular_target": "the molecule itself",
  "test": "SEC; Hi Load 16/60 Superdex 200 gel-filtration column, 50 mM Tris-HCl (pH 8.2), 50 mM NaCl, 1 mL/min; approximate molecular mass estimated from the elution of calibration proteins (44–669 kDa)",
  "data": [
    {"protein": "PhStom (63–234) (domain or fragment, Pyrococcus horikoshii, UniProt O59180 63-234, looked up, stomatin PH1511 of Pyrococcus horikoshii, residues 63–234; Initial methionine added before residue 63; In the crystal (8GN9) only residues 64–169 are modelled; the authors consider that residues 170–234 (and so the tag) were degraded during crystallization; source: E. coli BL21 (DE3) Codon-Plus RIL, purified (heat 85 °C, Ni-NTA, Superdex 200 gel filtration)) VDLRTQVLDVPVQETITKDNVPVRVNAVVYFRVVDPVKAVTQVKNYIMATSQISQTTLRSVIGQAHLDELLSERDKLNMQLQRIIDEATDPWGIKVTAVEIKDVELPAGMQKAMARQAEAERERRARITLAEAERQAAEKLREAAEIISEHPMALQLRTLQTISDVAGDKSN", "values": [
      {"measurement": "stoichiometry N", "result": 2}
    ]},
    {"protein": "PhStom (56–234) K59S (domain or fragment, Pyrococcus horikoshii, UniProt O59180 56-234, looked up, stomatin PH1511 of Pyrococcus horikoshii, residues 56–234 with K59S; Initial methionine added before residue 56; PDB 3BK6 is the parent (wild type) of the same limits; also called K59S mutant of PhStom (56–234); K59S mutant; source: E. coli BL21 (DE3) Codon-Plus RIL, purified (heat 85 °C, Ni-NTA, Superdex 200 gel filtration)) IFESAVIVDLRTQVLDVPVQETITKDNVPVRVNAVVYFRVVDPVKAVTQVKNYIMATSQISQTTLRSVIGQAHLDELLSERDKLNMQLQRIIDEATDPWGIKVTAVEIKDVELPAGMQKAMARQAEAERERRARITLAEAERQAAEKLREAAEIISEHPMALQLRTLQTISDVAGDKSN", "values": [
      {"measurement": "stoichiometry N", "result": 2}
    ]}
  ]
}
